Reference: the supplement of paper PMC9233669
Fewer inactive variants are shown than the library holds.

Columns and labels:
biotinyl-Val-oxazolone = assay: self-aminoacylation, catalytic enhancement (BVO) (fold over background); higher = more active; k-Seq, kA / k0A0; sequences stand for … in GGGAAUGGAUCCACAUCUACGAAUUC…UUCACUGCAGACUUGACGAAGCUG
In short: (§1)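 Catalytic enhancement equals the median kA over the uncatalyzed rate, the latter read from the low-activity peak of a bimodal Gaussian fit. Values of kA came from fitting each sequence's fraction reacted to a pseudo-first-order model, with 1000 bootstraps. Reacted RNA was captured with streptavidin and quantified by triplicate qPCR and Illumina sequencing after 90 minutes at room temperature with 2–1250 μM biotinyl-aminoacyl-oxazolone and 0.43 μM mutagenized RNA pools bearing a 21-nt variable region.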

biotinyl-Ile-oxazolone = assay: self-aminoacylation, catalytic enhancement (BIO) (fold over background); higher = more active; k-Seq, kA / k0A0; sequences stand for … in GGGAAUGGAUCCACAUCUACGAAUUC…UUCACUGCAGACUUGACGAAGCUG
In short: as §1

biotinyl-Met-oxazolone = assay: self-aminoacylation, catalytic enhancement (BMO) (fold over background); higher = more active; k-Seq, kA / k0A0; sequences stand for … in GGGAAUGGAUCCACAUCUACGAAUUC…UUCACUGCAGACUUGACGAAGCUG
In short: as §1

biotinyl-Phe-oxazolone = assay: self-aminoacylation, catalytic enhancement (BFO) (fold over background); higher = more active; k-Seq, kA / k0A0; sequences stand for … in GGGAAUGGAUCCACAUCUACGAAUUC…UUCACUGCAGACUUGACGAAGCUG
In short: as §1

biotinyl-Trp-oxazolone = assay: self-aminoacylation, catalytic enhancement (BWO) (fold over background); higher = more active; k-Seq, kA / k0A0; sequences stand for … in GGGAAUGGAUCCACAUCUACGAAUUC…UUCACUGCAGACUUGACGAAGCUG
In short: as §1

biotinyl-Leu-oxazolone = assay: self-aminoacylation, catalytic enhancement (BLO) (fold over background); higher = more active; k-Seq, kA / k0A0; sequences stand for … in GGGAAUGGAUCCACAUCUACGAAUUC…UUCACUGCAGACUUGACGAAGCUG
In short: as §1

| Sequence | self-aminoacylation (biotinyl-Val-oxazolone) | self-aminoacylation (biotinyl-Ile-oxazolone) | self-aminoacylation (biotinyl-Met-oxazolone) | self-aminoacylation (biotinyl-Phe-oxazolone) | self-aminoacylation (biotinyl-Trp-oxazolone) | self-aminoacylation (biotinyl-Leu-oxazolone) |
| --- | --- | --- | --- | --- | --- | --- |
| AUUAGCCUGGUCAUCGAGGGA [Fam2.1 aminoacylation ribozyme variant] | 2.4 | 2.08 | 1.49 | 2.28 | 3.19 | 2.52 |
| AUUAGCCUGGUCCUCGAGUGA [Fam2.1 aminoacylation ribozyme variant] | 2.84 | 2.67 | 4.69 | 36.7 | 5.08 | 5.41 |
| AUUAGCCUGGUGAUCGAGUGA [Fam2.1 aminoacylation ribozyme variant] | 3.62 | 3.98 | 7.43 | 41.1 | 8.57 | 7.61 |
| AUUAUCCUAGGUCAUCGGGUG [Fam2.2 aminoacylation ribozyme variant] | 5.98 | 6.74 | 9.84 | 54.6 | 9.09 | 14.5 |
| AUUAUCCUGGCCAUCGAGUGA [Fam2.1 aminoacylation ribozyme variant] | 1.69 | 1.92 | 2.99 | 13.8 | 2.77 | 2.98 |
| AUUAUCCUGGGCAUCGAGUGA [Fam2.1 aminoacylation ribozyme variant] | 2.94 | 3.07 | 5.87 | 36.3 | 6.86 | 6.24 |
| AUUAUCCUGGUAAUCGAGUGA [Fam2.1 aminoacylation ribozyme variant] | 5.97 | 5.94 | 13.3 | 96.5 | 16.5 | 14.5 |
| AUUAUCCUGGUCAUCAAGUGA [Fam2.1 aminoacylation ribozyme variant] | 2.2 | 2.3 | 3.84 | 10.1 | 4.39 | 3.5 |
| AUUAUCCUGGUCAUCGACUGA [Fam2.1 aminoacylation ribozyme variant] | 0.785 | 0.875 | 0.65 | 0.418 | 0.498 | 0.941 |
| AUUAUCCUGGUCAUCGAGUGG [Fam2.1 aminoacylation ribozyme variant] | 2.27 | 2.19 | 5.06 | 6.09 | 4.05 | 5.03 |
| AUUCAACUAGGUCAACGGGUG [Fam2.2 aminoacylation ribozyme variant] | 2.31 | 2.4 | 4.31 | 25.5 | 3.38 | 4.91 |
| AUUCAACUAGGUCAGCGGGUG [Fam2.2 aminoacylation ribozyme variant] | 3.29 | 3.15 | 4.12 | 32.2 | 5.13 | 5.11 |
| AUUCAACUAGGUCAUCGAGUG [Fam2.2 aminoacylation ribozyme variant] | 1.45 | 1.55 | 2.2 | 2.85 | 1.84 | 3.13 |
| AUUCAACUAGGUCAUCGGAUG [Fam2.2 aminoacylation ribozyme variant] | 0.708 | 0.675 | 0.66 | 0.801 | 0.549 | 0.772 |
| AUUCAACUAGGUGAUCGGGUG [Fam2.2 aminoacylation ribozyme variant] | 2.76 | 3.02 | 3.11 | 21.9 | 4.01 | 4.01 |
| AUUCAACUCGGUCAUCGGGUG [Fam2.2 aminoacylation ribozyme variant] | 3.84 | 4.15 | 6.48 | 67.4 | 7.4 | 9.77 |
| AUUCAACUUGGUCAUCGGGUG [Fam2.2 aminoacylation ribozyme variant] | 3.29 | 3.85 | 5.25 | 34.1 | 4.45 | 6.72 |
| AUUCACAUAAGUCAUCGGGUG [Fam2.2 aminoacylation ribozyme variant] | 6.79 | 7.61 | 11.8 | 95.4 | 12.4 | 18.3 |
| AUUCACAUACGUCAUCGGGUG [Fam2.2 aminoacylation ribozyme variant] | 4.19 | 4.62 | 7.22 | 53.4 | 6.74 | 9.26 |
| AUUCACAUAGGGCAUCGGGUG [Fam2.2 aminoacylation ribozyme variant] | 3.39 | 3.83 | 4.4 | 20.9 | 4.52 | 3.62 |
| AUUCACAUAGGUCAGCGGGUG [Fam2.2 aminoacylation ribozyme variant] | 2.91 | 3.26 | 3.83 | 22.6 | 5.03 | 4.15 |
| AUUCACAUAGGUCAUCGGAUG [Fam2.2 aminoacylation ribozyme variant] | 0.857 | 0.903 | 0.698 | 0.549 | 0.403 | 0.649 |
| AUUCACAUCGGUCAUCGGGUG [Fam2.2 aminoacylation ribozyme variant] | 4.81 | 4.36 | 8.09 | 57.5 | 5.93 | 9.09 |
| AUUCACCAAGCUCAUCGGGUG [Fam2.2 aminoacylation ribozyme variant] | 2.92 | 2.4 | 2.13 | 9.43 | 1.79 | 2.92 |
| AUUCACCAAGGACAUCGGGUG [Fam2.2 aminoacylation ribozyme variant] | 3.27 | 3.2 | 4.65 | 30 | 4.17 | 4.96 |
| AUUCACCAAGGUCAUCCGGUG [Fam2.2 aminoacylation ribozyme variant] | 4.96 | 5.51 | 7.8 | 59.6 | 7.89 | 11.4 |
